Experimental findings from patent US20080113343A1 are described below.

For this test, the target named is human sPLA2-IIA (Type IIA secreted phospholipase A2) (human) (UniProt P14555). Nature of the test: cell-based or functional assay.
Sequence of human sPLA2-IIA (Type IIA secreted phospholipase A2) (human) (P14555 21-144 limits assumed): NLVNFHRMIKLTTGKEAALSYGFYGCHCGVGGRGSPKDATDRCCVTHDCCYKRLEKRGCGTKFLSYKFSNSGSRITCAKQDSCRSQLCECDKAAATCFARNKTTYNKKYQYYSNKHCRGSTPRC

As for “c(2NapA)LS(2NapA)R (cyclic (2Nap)LS(2Nap)R) (peptide)”, the smallest effective dose, proliferation of unstimulated LNCaP and PC-3 cells (MTS assay, doses 1-100 nM) was 1 nM.
